Here are results for 3 molecules from patent US8445275B2, “Induction of dendritic cell development with macrophage-colony stimulating factor (M-CSF)” (Bavarian Nordic A/S, priority 2007, dated 2013).

Data set [1] deals with FL cultures (FL-DC generation, Flt3). Description: Inhibitor effect on cell numbers in FL BM cultures (FL-DC generation). Type of data set: cell-based, mouse. Particulars: range of concentrations. Here is the method: FIG. 4 and FIG. 8. The generation of M-DC is inhibited by a c-FMS inhibitor. Replicate M-CSF and FL cultures were conducted in parallel in the presence or absence of a range of A: cFMS Receptor Tyrosine Kinase Inhibitor or B: Flt3 Inhibitor concentrations. At the end of the culture period all cells were counted. The number of cells harvested from cultures without inhibitor was set at 100%. Cells from cultures containing inhibitor were expressed as a percentage of cells obtained in the absence of inhibitor. The data shown in each panel are from one experiment each, representative of 2 experiments carried out for each of the inhibitors.
(§1) M-CSF and FL BM cultures—BM cells were flushed from femurs and tibiae of mice. Red cell lysis buffer (Sigma-Aldrich) was used to deplete red blood cells from the BM cell suspensions. BM cells were then either cultured directly or after depletion. To deplete, BM cells were incubated for 30 min with rat antibodies to CD11c and CD45R (B220) followed by 30 min incubation with goat anti-rat magnetic beads (Qiagen, Hilden, Germany). The depletion procedure routinely removed 65-80% of total BM cells. It should be noted that depletion with the beads only, in the absence of the rat antibodies, also depleted about 50% of the BM cells, presumably via FcR/Ig interactions. […]

The next data set relates to M-pDC. Description: Activation and cytokine production of sorted M-pDC by TLR ligands. Type of data set: cell-based, mouse. The settings on record: TLR2 ligand 1 μg/ml, 18 hrs. As for the experimental part: Activation of DC subsets and analysis of cytokine production by ELISA—Unsorted M-CSF or FL BM cultures or sorted DCs (0.25−0.5×10^6 cells/ml) were stimulated for 18-24 hrs in complete media with or without an added stimulus. The stimuli used were as follows: 1 μg/ml Pam-3-Cys, 100 μg/ml poly(I:C), 1 μg/ml LPS, 1 μg/ml R837, 1 mM Loxoribine, 0.5 μM CpG2216, 0.5 μM CpG1668. Culture supernatants were assayed for the presence of IFN-α by two-site ELISA as previously described (21). Other cytokines (IL-12 p70, IL-6, TNF-α, MCP-1 and IFN-γ) were measured using the Cytometric Bead Array, Mouse Inflammation Kit (Becton Dickinson). Stimulated DCs were blocked as stated above and stained with antibodies directed to CD8a, CD40, CD69, CD80 and CD86.
The survival of the M-pDC to these stimuli was extremely poor (<5%), data not shown.
Similar to FL-pDCs and ex-vivo pDCs, sorted M-pDC were activated with ligands for TLR7 and 9, as indicated by elevated expression of CD8a, CD69, CD86 and CD40 (FIG. 3B and data not shown). M-pDC only produced detectable cytokines to TLR7 and 9 ligands (FIG. 3C and data not shown). In response to a type A CpG-ODN (CpG2216) M-pDCs produced high levels of IFN-α (FIG. 3C). […] The production of IL-10, IL-12p70, MCP-1 and IFN-γ by the M-pDC was also tested but none of these cytokines were detected.

A further data set has as its system C57BL/6 or FLKO mice. Description: In vivo M-CSF treatment, DC numbers in spleen and peritoneal lavage. Set-up: species or system mouse. Here is the method:
In vivo M-CSF treatment—Wild type and FLKO mice were treated ip with 10 μg of M-CSF in 0.01% BSA (100 μl volume), or with vehicle alone, for five consecutive days. At the end of five days mice were sacrificed. The peritoneum was flushed 3 times with Complete media and then organs were collected for DC purification.
Ex vivo DC purification—DCs were purified from spleens of M-CSF or vehicle treated mice essentially as previously described (21), using FACS buffer, RPMI and 1.077A Nycodenz (Progen Biotechnik GmbH, Heidelberg, Germany) that was adjusted to mouse osmolarity (308 mOsm).
Specifically cDC were reduced about 2-fold and pDC about 3-fold. This was substantially less of an effect than that seen in mice lacking FL but nevertheless, lack of M-CSF did result in reduced DC numbers, further substantiating the assumption that M-CSF is a DC poietin. To further validate the studies initiated by MacDonald et al (2005), M-CSF was administered to mice in order to analyze whether M-CSF could actually increase DC numbers in vivo. According to other references in the prior art, a range of exogenous M-CSF concentrations in the range of 10 to 200 μg/day has been administered. The source of M-CSF used has varied widely and consequently, as well as the specific activity. It is thus impossible to gauge an optimal or saturating level of M-CSF to administer. Moreover, it has been reported that M-CSF has an extremely short half-life of only 10 mins in the circulation^28. Due to the prohibitive cost of commercial M-CSF with a determined specific activity a ‘proof of principal’ trial experiment was conducted and 10 μg/day of M-CSF to C57BL/6 or FLKO mice for 5 days were administered. This amount was neither titrated nor was it attempted to extend the application period. […] Said observations indicate that M-CSF indeed was inducing an effect in vivo.

The subject of data set [2] is mouse bone marrow (BM) cells. Description: IFN-α production of M-CSF BM cultures in response to CpG-2216 (ELISA). Format: cell-based. As for the experimental part: as §1, with “interactions. Total BM cells or depleted BM cells were cultured at 1.5×10^6 cells/ml in RPMI-1640 media (Gibco) supplemented with 10% FCS, 50 μM beta-mercaptoethanol, 100 IU/ml penicillin/streptomycin (complete media) and either 20 ng/ml recmuM-CSF or rechu-MCSF or 35 ng/ml recmuFL for 6-8 days at 37° C. in a humidified atmosphere containing 5% CO2.” for “interactions.”
Activation of DC subsets and analysis of cytokine production by ELISA—Unsorted M-CSF or FL BM cultures or sorted DCs (0.25−0.5×10^6 cells/ml) were stimulated for 18-24 hrs in complete media with or without an added stimulus. […] Other cytokines (IL-12 p70, IL-6, TNF-α, MCP-1 and IFN-γ) were measured using the Cytometric Bead Array, Mouse Inflammation Kit (Becton Dickinson). […]

Data set [3] has as its system CMP, CLP, GMP from C57BL/6 BM. Description: M-CSF cultures of purified progenitors (CMP, CLP, GMP) spiked into UBC-GFP BM cells. Type of data set: cell-based, mouse. The settings on record: M-CSF culture 6 days. As for the experimental part: CMP (Lin^−Sca-1^−ckit^+CD34^+FcR^int), CLP (Lin^−Sca-1^+c-kit^intIL-7R^+Thy-1^−) or granulocyte/macrophage progenitors (GMP, Lin^−Sca-1^−c-kit^+CD34^+FcR^hi) were isolated from C57BL/6 BM as previously described^21 and sorted to greater than 95% purity on a FACS-ARIA instrument. 2500 cells and serial 2-fold dilutions thereof were added to a 1 ml suspension of UBC-GFP BM cells in a 24-well plate. Final UBC-GFP BM cell concentration was 1.0×10^6 cells/ml. M-CSF or FL cultures were carried out in these wells as described above. After 6 days, samples were enumerated, analysed by FACS, and progeny arising from the C57BL/6 progenitors were gated as GFP^neg cells. To analyse M-CSFR (CD115) and Flt3 (CD135) expression on CLP (Lin^−Sca-1^+c-kit^intIL-7R^+Thy-1^−), lineage depleted cells were first stained with Sca-1-FITC and Thy-1-PE antibodies and the Sca-1^+Thy-1^− cells were sorted. These pre-enriched cells (>95% purity when reanalysed) were then stained with CD117-PE-CY7, IL-7R-APC and either CD115-PE or CD135-PE.
The identification of DC subtypes that could be generated in the absence of FL both in vivo and in vitro immediately raises the question of the nature of their precursor cells. It has been considered whether this factor acts on an early lineage progenitor or, since M-CSF is traditionally considered a ‘myeloid’ growth factor, on a later precursor within the myeloid lineage to generate M-DC. CMP, GMP and CLP were purified from mouse BM. Serial dilutions of the purified cell populations were admixed with ‘feeder’ UBC-GFP BM cells and M-CSF cultures were carried out for 6 days.

For data set [4] the following is noted: reported in the literature; cited from earlier work.
For data set [5], the system named is BM cells depleted of B220+ and CD11c+ cells. Description: pDC/cDC development in M-CSF BM cultures (CD11c/CD45RA staining). Format: cell-based, mouse. As for the experimental part: M-CSF and FL BM cultures—BM cells were flushed from femurs and tibiae of mice. Red cell lysis buffer (Sigma-Aldrich) was used to deplete red blood cells from the BM cell suspensions. BM cells were then either cultured directly or after depletion. To deplete, BM cells were incubated for 30 min with rat antibodies to CD11c and CD45R (B220) followed by 30 min incubation with goat anti-rat magnetic beads (Qiagen, Hilden, Germany). The depletion procedure routinely removed 65-80% of total BM cells. It should be noted that depletion with the beads only, in the absence of the rat antibodies, also depleted about 50% of the BM cells, presumably via FcR/Ig interactions. Total BM cells or depleted BM cells were cultured at 1.5×10^6 cells/ml in RPMI-1640 media (Gibco) supplemented with 10% FCS, 50 μM beta-mercaptoethanol, 100 IU/ml penicillin/streptomycin (complete media) and either 20 ng/ml recmuM-CSF or rechu-MCSF or 35 ng/ml recmuFL for 6-8 days at 37° C. in a humidified atmosphere containing 5% CO2. The M-CSF cultures were fed with fresh M-CSF every 3 days, without media change.
Surface staining of M-CSF or FL BM cultures—Harvested cells were washed in PBS containing 2% FCS and 2 mM EDTA (FACS buffer). FcR binding was then blocked by incubation with 1 mg/ml purified anti CD16/32 monoclonal antibody (clone 2.4G2) for 20 mins on ice. An equal volume of 2× concentrated specific antibody stain was then added to the cell suspension and incubated for a further 20 mins. Cells were washed in FACS buffer and resuspended in FACS buffer containing 1 μg/ml propidium iodide.
Indeed, a population of 10-20% of cells within the cultures expressed high levels of CD45RA and medium levels of CD11c, together with the lack of CD3, CD19 or CD49b or NK1.1 expression, low side scatter and forward scatter this was commensurate with the phenotype of pDCs (FIG. 1B and data not shown).
It was clear that M-CSF could drive pDC development yet the yield of pDCs was substantially less then that obtained with FL. […]

[6] abbreviates: 10 μg/day ip for 5 days, C57BL/6 and FLKO mice, vs vehicle.

With Flt3 Inhibitor II, the “effect on generation of FL-DC” value in data set [1] was “highly inhibitory”.

For “palmitoyl-3-cysteine-serine-lysine-4 [Pam-3-Cys]”, the “surface activation of M-pDC” value in the data set on M-pDC was “very minor surface activation”.

B1: M-CSF: Recombinant murine or human Macrophage-Colony Stimulating Factor obtained from Tebu-Bio / R&D Systems (protein, UniProt P09603 33-554, looked up)
Macrophage colony-stimulating …: EEVSEYCSHMIGSGHLQSLQRLIDSQMETSCQITFEFVDQEQLKDPVCYLKKAFLLVQDIMEDTMRFRDNTPNAIAIVQLQELSLRLKSCFTKDYEEHDKACVRTFYETPLQLLEKVKNVFNETKNLLDKDWNIFSKNCNNSFAECSSQDVVTKPDCNCLYPKAIPSSDPASVSPHQPLAPSMAPVAGLTWEDSEGTEGSSLLPGEQPLHTVDPGSAKQRPPRSTCQSFEPPETPVVKDSTIGGSPQPRPSVGAFNPGMEDILDSAMGTNWVPEEASGEASEIPVPQGTELSPSRPGGGSMQTEPARPSNFLSASSPLPASAKGQQPADVTGTALPRVGPVRPTGQDWNHTPQKTDHPSALLRDPPEPGSPRISSLRPQGLSNPSTLSAQPQLSRSHSSGSVLPLGELEGRRSTRDRRSPAEPEGGPASEGAARPLPRFNSVPLTDTGHERQSEGSFSPQLQESVFHLLVPSVILVLLAVGGLLFYRWRRRSHQEPQRADSPLEQPEGSPLTQDDRQVELPV
In the case of B1, the “increase of cells that resembled DC in the peritoneal lavage” value with C57BL/6 or FLKO mice (10 μg/day for 5 days, a C57BL/6 mouse, data not shown) was “greater than 6 fold”. For the same molecule, in the data set on C57BL/6 or FLKO mice (10 μg/day for 5 days, data not shown), the “F4/80hi cells in peritoneal lavages” value is given as “huge increase”. For the same molecule, the total splenocytes entry in the data set on C57BL/6 or FLKO mice (10 μg/day ip for 5 days) was “did not induce an increase”. In the data set with C57BL/6 or FLKO mice (setting [6]), the “increase in cDC numbers in the spleen” value is on record as “about 2 fold” and the “increase in pDC numbers in the spleen” value is given as “about 2 fold”. Besides, the “CpG-induced IFN-α producing capacity” value in data set [2] (DC-depleted BM cells cultured with M-CSF for 6 days, non-adherent cells) is reported as “potent IFN-α producing capacity was detected again”. Besides, in data set [2] (total BM cells cultured with M-CSF, 0-7 days, adherent and non-adherent cells), the “IFN-α production in response to CpG-2216” value is “high levels”. Also, in data set [3] (CLP), the “output of M-cDC per input progenitor cell” value is on record as “about 5” and the “output of M-pDC per input progenitor cell” value was “at least 10”. The “output of M-cDC per input progenitor cell” value in data set [3] (CMP) was 8-10. Besides, in data set [3] (GMP), the “M-DC production from progenitors” value is listed as “not capable of M-DC production”. Besides, the “half-life in the circulation” value in data set [4] is 10 min. Moreover, the “pDC development in BM cultures from FLKO mice” value in data set [5] (FLKO BM depleted of DC, exogenous M-CSF only) was “pDCs developed even in the absence of FL”. Moreover, in data set [5] (non-adherent M-CSF-generated cells, day 6), the “population of cells with pDC phenotype (CD45RA high, CD11c medium) within the cultures” value was 10-20%. Further, the “efficiency of pDC yield compared with FL” value in data set [5] (side by side after six days of culture, less efficient than FL) was “approximately 10 fold”.
